Source: article PMC8431961 (Science (New York, N.Y.), 2021)

Target: the molecule itself
Assay: SEC + other: electron microscopy

Protein | binding result
MmPNMA5 (natural protein, mouse, UniProt Q5DTT8 1-618, looked up) MAVALLDDWCKGMDLDPKKAVLIVGIPVQYTEAAINDALKEGLPPLCAYKVIGRMFRREDEAKAVLIELPEVVDYTMMPTHIPAEGGAWEVVVKPRSPDDEFMNKLIYFLRDEGRRIVDVAKALGFSTVPTGKIELKNLDQDKPKGLKSLCNNSTCYKKLKVFSGSPFPGPGEESFETWLEEVTELMQLWQVSEREKKQCLLESLRGSALSIMQALWTSNDSLTVEQCLKALKHIFGNKEDSKVLQFRFLQSSQKPAEKVSDYLLRLEPLLQKAVQQSPLSAHSADSIRLKHVLSQVSMTTGLRGKLSLLDQQGCPPTFLELMKLTRDEEEWESTVVVEEQEQVRRDSSACEAANEVVTQAEDSREVSTQTTGEEMTSVKRRRLLWRHSAGEEGQRKESGFWAESEPDEQKPYVRAQESGNERGAWAVSHPNPKEIEAQDSQEFLPVAGNRDTLTKSWGSPDKGTGDMSVAEGQQGQGKAPNFLLARNDPNKQEQIPHSSVTTKWQDRGECQRLKWGASMITRPQGNPDRSWDTSGSQDGEDGCSELRMPTGTEAAQGVEEPATGLSWAEDTSAWEQARLGRETVPRRGGRRIQPVFRIIYTALGEPHEGSTLESFRE | binds
MmPNMA3 (natural protein, mouse, UniProt Q8JZW8 1-466, looked up) MPLNLLQDWCRGEHLNTQRSMLILGIPEDCSEDEFEETLHEALKHLGRYRIIGRMFRREENAQAFLVELARDFDYALVPREIEGKGGPWEVVVKPPHSDDEFLNRLNHFLEEERRTVSDMNRVLGTHSNHSPTKTTISADFWVWAQTLGAVMQPLLEQMLYRELRVFSGNTISIPGLLAFDSWLEHTTEMLQMWQVPEVEKRRRLMECLRGPALQVVNVLRANNAAITVKECLEALRQVFGSVDNRKIAQLKFCKAYQEPGEKVSSFVVRLETLLQKALEKNAISRKNVNQTRLKRILGGAILSAKLREKLKMLKQRRRPPGFLALVKLFREEEEEWEATRGSERSCYEGLELGPSPSNIGSEERELFVPAFGSVLEERPYQGSRRRRHRRRGQHRKGGVPRDDSQGTRKQNYDTFCYSCGEDGHIRVHCFNPSNRTLVKQKRQAAMEKGNRSWAWEKSHPKPKTK | binds
MmMOAP1 (natural protein, mouse, UniProt Q9ERH6 1-352, looked up) MTLRLLEDWCRGMDMNPRKALLVAGIPPTCGVADIEEALQAGLAPLGEHRLLGRMFRRDENKNVALIGLTVETGSALVPKEIPAKGGVWRVIFKPPDTDSDFLCRLNEFLKGEGMTMGELTRVLGNRNDPLGLDPGIMIPEIRAPMLAQALNEALKPTLQYLRYKKLSVFSGRDPPGPGEEEFESWMFHTSQVMKTWQVSDVEKRRRLIESLRGPAFEIIRVLKINNPFITVAECLKTLETIFGIIDNPRALQVKYLTTYQKTDEKLSAYVLRLEPLLQKLVQKGAIEKEVVNQARLDQVIAGAVHKSVRRELGLPEGSPAPGLLQLLTLIKDKEAEEEEVLLQAELEGYCT | binds
